From patent US20100291540A1 come the findings set out here.

The target in test [1] is starch binding domain derived from Aspergillus niger glucoamylase (AnSBD) (Aspergillus niger) (UniProt P69328). Put plainly: competition sandwich ELISA, 250 nM gp140 premixed with panel, AnSBD-coated plate; competes with the panel's HIV antigen. A general note: ELISA stands for enzyme-linked immunosorbent assay.
Test [2] deals with starch binding domain derived from Rhizopus oryzae glucoamylase (RoSBD) (Rhizopus oryzae) (UniProt P07683). Put plainly: competition sandwich ELISA, 250 nM gp140 premixed with panel, RoSBD-coated plate; competes with the panel's HIV antigen.

HIV1 gp140 antigen: the inhibition rate in test [1] came to 40.1%; in test [2] it was 42.9%.
